Patent publication CN116178530A (SHANGHAI JUNSHI BIOSCIENCES CO LTD; JUNMENG BIOSCIENCES CO …, dated 2023)

What was measured:
[1] = target: Alpha突变株RBD蛋白(货号SPD-C82E6，ACRO Biosystems) (SARS-CoV-2, UniProt P0DTC2 319-537)
[2] = target: Beta突变株RBD蛋白(货号SPD-C82E5，ACRO Biosystems) (SARS-CoV-2, UniProt P0DTC2 319-537)
[3] = target: Gamma突变株RBD蛋白(货号SPD-C82E7，ACRO Biosystems) (SARS-CoV-2, UniProt P0DTC2 319-537)
[4] = target: Kappa突变株RBD蛋白(货号SPD-C82Ec，ACRO Biosystems) (SARS-CoV-2, UniProt P0DTC2 319-537)
[5] = target: Epsilon突变株RBD蛋白(货号SPD-C82E3，ACRO Biosystems) (SARS-CoV-2, UniProt P0DTC2 319-537)
[6] = target: Delta突变株RBD蛋白(货号SPD-C82Ed，ACRO Biosystems) (SARS-CoV-2, UniProt P0DTC2 319-537)
[7] = target: SARS-CoV-2的Alpha突变株(B.1.1.7)假病毒的刺突蛋白 (SARS-CoV-2, UniProt P0DTC2 14-1273); assay: cell-based or functional assay
[8] = target: SARS-CoV-2的Beta突变株(B.1.351)假病毒的刺突蛋白 (SARS-CoV-2, UniProt P0DTC2 14-1273); assay: cell-based or functional assay
[9] = target: SARS-CoV-2的Gamma突变株(P.1)假病毒的刺突蛋白 (SARS-CoV-2, UniProt P0DTC2 14-1273); assay: cell-based or functional assay
[10] = target: SARS-CoV-2的Kappa突变株(B.1.617.1)假病毒的刺突蛋白 (SARS-CoV-2, UniProt P0DTC2 14-1273); assay: cell-based or functional assay
[11] = target: SARS-CoV-2的Delta突变株(B.1.617.2)假病毒的刺突蛋白 (SARS-CoV-2, UniProt P0DTC2 14-1273); assay: cell-based or functional assay

B1: JS5-10 (antibody, human IgG1, kappa, L234A L235A, V domains shown)
VH: EVQLLESGGGLVQPGGSLRLSCAASGFTFSSYAMSWVRQAPGKGLEWVSAIVGSGGSTYYADSVKGRFIISRDNSKNTLYLQMNSLRAEDTAVYYCAKSLIYGHYDILTGAYYFDYWGQGTLVTVSS
VL: DIQMTQSPSSVSASVGDRVTIPCRASQGIGNWLAWYQQKPGKAPKLLIYAASSLQSGVPSRFSGSGSGTDFTLTISSLQPEDFATYYCQQANSFPPFGQGTRLEIKR
Kd [1]: 1.3 nM | koff [1]: 0.000316 s⁻¹ | kon [1]: 243000 M⁻¹ s⁻¹ | Kd [2]: 0.88 nM | koff [2]: 0.000176 s⁻¹ | kon [2]: 201000 M⁻¹ s⁻¹ | Kd [3]: 1.12 nM | koff [3]: 0.000241 s⁻¹ | kon [3]: 216000 M⁻¹ s⁻¹ | Kd [4]: 0.875 nM | koff [4]: 0.000172 s⁻¹ | kon [4]: 196000 M⁻¹ s⁻¹ | Kd [5]: 1.17 nM | koff [5]: 0.000226 s⁻¹ | kon [5]: 193000 M⁻¹ s⁻¹ | Kd [6]: 0.73 nM | koff [6]: 0.000161 s⁻¹ | kon [6]: 220000 M⁻¹ s⁻¹ | 假病毒中和 IC50 (荧光素酶报告基因, 293-ACE2细胞) [7]: 1.18 ng/mL | 假病毒中和 IC50 (荧光素酶报告基因, 293-ACE2细胞) [8]: 8.47 ng/mL | 假病毒中和 IC50 (荧光素酶报告基因, 293-ACE2细胞) [9]: 0.449 ng/mL | 假病毒中和 IC50 (荧光素酶报告基因, 293-ACE2细胞) [10]: 5.4 ng/mL | 假病毒中和 IC50 (荧光素酶报告基因, 293-ACE2细胞) [11]: 5.56 ng/mL
